In patent publication US20260274910A1, “SINGLE FUSION PROTEIN AND PHARMACEUTICAL COMPOSITION” (MEDI&GENE INC., priority 2023, published 2026):

These substances were tested against ATP5B protein (Homo sapiens, UniProt P06576) (assay: SPR binding ability test). Details: ATP5B on CM5 chip, flow rate 50 μl/min, relative to control shortened sequence (SEQ ID NO: 12).
Procedure: In order to evaluate substitutable residues within a sequence, an SPR (surface plasma resonance) test was conducted. Specifically, the ATP5B protein was conjugated to a CM5 chip by amine-conjugation, and then the contact of each test substance was observed under the condition of a flow rate of 50 μl/min, and the refractive index was measured. Thereafter, by converting each binding unit, the binding ability was compared and evaluated. […] A decrease of 10% or more in binding ability was considered to indicate a negative effect of the substitution.

ATP5B protein, sequence (P06576 48-529, species assumed): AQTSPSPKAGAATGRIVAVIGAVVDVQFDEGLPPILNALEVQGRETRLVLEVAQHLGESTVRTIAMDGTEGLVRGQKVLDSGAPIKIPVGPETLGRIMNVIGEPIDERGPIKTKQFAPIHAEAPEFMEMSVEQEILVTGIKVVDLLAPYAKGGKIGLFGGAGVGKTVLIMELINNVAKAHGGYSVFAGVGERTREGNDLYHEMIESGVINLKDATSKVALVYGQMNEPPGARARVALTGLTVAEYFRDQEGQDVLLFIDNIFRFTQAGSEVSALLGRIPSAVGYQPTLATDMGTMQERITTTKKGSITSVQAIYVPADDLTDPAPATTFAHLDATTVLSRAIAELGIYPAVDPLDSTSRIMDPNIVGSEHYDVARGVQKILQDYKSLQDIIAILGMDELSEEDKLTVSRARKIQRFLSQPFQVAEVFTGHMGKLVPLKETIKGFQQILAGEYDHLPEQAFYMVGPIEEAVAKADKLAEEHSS

Substance	Binding (%)
SEQ ID NO: 27: Shortened substance (8-35) amino acid Ala substituted (22) VDRGAGSIREAGGAAGKREQAEEERYFR	94.0%
SEQ ID NO: 24: Shortened substance (8-35) amino acid Ala substituted (17) VDRGAGSIRAAGGAFGKREQAEEERYFR	168.7%
SEQ ID NO: 19: Shortened substance (8-35) amino acid Ala substituted (11) VDRAAGSIREAGGAFGKREQAEEERYFR	100.0%
SEQ ID NO: 26: Shortened substance (8-35) amino acid Ala substituted (20) VDRGAGSIREAGAAFGKREQAEEERYFR	68.0%
SEQ ID NO: 33: Shortened substance (8-35) amino acid Ala substituted (29) VDRGAGSIREAGGAFGKREQAAEERYFR	96.7%
SEQ ID NO: 18: Shortened substance (8-35) amino acid Ala substituted (10) VDAGAGSIREAGGAFGKREQAEEERYFR	104.2%
SEQ ID NO: 34: Shortened substance (8-35) amino acid Ala substituted (30) VDRGAGSIREAGGAFGKREQAEAERYFR	94.0%
SEQ ID NO: 31: Shortened substance (8-35) amino acid Ala substituted (26) VDRGAGSIREAGGAFGKRAQAEEERYFR	94.1%
SEQ ID NO: 25: Shortened substance (8-35) amino acid Ala substituted (19) VDRGAGSIREAAGAFGKREQAEEERYFR	89.6%
SEQ ID NO: 22: Shortened substance (8-35) amino acid Ala substituted (15) VDRGAGSAREAGGAFGKREQAEEERYFR	99.3%
SEQ ID NO: 20: Shortened substance (8-35) amino acid Ala substituted (13) VDRGAASIREAGGAFGKREQAEEERYFR	98.5%

The next lines start with the values.

Binding (%)	Substance
85.2%	SEQ ID NO: 30: Shortened substance (8-35) amino acid Ala substituted (25) VDRGAGSIREAGGAFGKAEQAEEERYFR
426.0%	SEQ ID NO: 36: Shortened substance (8-35) amino acid Ala substituted (32) VDRGAGSIREAGGAFGKREQAEEEAYFR
109.6%	SEQ ID NO: 39: Shortened substance (8-35) amino acid Ala substituted (35) VDRGAGSIREAGGAFGKREQAEEERYFA
97.0%	SEQ ID NO: 23: Shortened substance (8-35) amino acid Ala substituted (16) VDRGAGSIAEAGGAFGKREQAEEERYFR
157.9%	SEQ ID NO: 35: Shortened substance (8-35) amino acid Ala substituted (31) VDRGAGSIREAGGAFGKREQAEEARYFR
100.5%	SEQ ID NO: 29: Shortened substance (8-35) amino acid Ala substituted (24) VDRGAGSIREAGGAFGAREQAEEERYFR
102.3%	SEQ ID NO: 28: Shortened substance (8-35) amino acid Ala substituted (23) VDRGAGSIREAGGAFAKREQAEEERYFR
101.4%	SEQ ID NO: 16: Shortened substance (8-35) amino acid Ala substituted (8) ADRGAGSIREAGGAFGKREQAEEERYFR
98.8%	SEQ ID NO: 21: Shortened substance (8-35) amino acid Ala substituted (14) VDRGAGAIREAGGAFGKREQAEEERYFR
145.8%	SEQ ID NO: 37: Shortened substance (8-35) amino acid Ala substituted (33) VDRGAGSIREAGGAFGKREQAEEERAFR
91.6%	SEQ ID NO: 17: Shortened substance (8-35) amino acid Ala substituted (9) VARGAGSIREAGGAFGKREQAEEERYFR
